These are literature values, as cited in patent US9504757B2, “Site-specific GLP-2 conjugate using an immunoglobulin fragment” (HANMI SCIENCE CO., LTD., priority 2011, dated 2016).

For this data set the following is noted: inactivation by DPP IV; Bolette H. et al. 2000.

For the sequence “HADGSFSDEMNTILDNLAARDFINWLIQTKITD [GLP-2]”, the in vivo half-life is not above 7 min.
